As usually defined, the EC50 (read off the curve) is the concentration needed to bring the measured effect to its halfway point.

The assay deals with recombinant GPI-linked rhesus GM-CSF on the surface of transiently transfected 293 cells (rhesus).

B1: 1783J22 human monoclonal antibody (whole IgG) (antibody, V domains shown)
VH: EVQLLQSGGGLTHPGGSLRLSCAASGFPFHKYTMTWVRQPPGKGLEWVSSVSGVNGKTYYSPSVRGRAIVSRDDSNSMLFLEIKNMTAGDTALYFCAKGPGGHLHYYYGLDVWGHGTSVTVSS
VL: DIQMTQSPSSLSASIGDRVTISCRASQAINNYVAWFQQSAGKAPKSLIYGASNLQPGVPPRFSGSVSGTNFSLTIDGLQSEDFATYFCQNYFGYPLTFGGGTTLEIKR
For the molecule B1, the concentration giving a half-maximal response (EC50 (read off the curve)) was approximately 0.05 µg/mL.

The values above are taken from patent US20100291075A1 (THERACLONE SCIENCES, published 2010).
